Results published in publication PMC3021526, “Rise and Fall of an Anti-MUC1 Specific Antibody” (PLoS ONE, 2011).
Residue numbers refer to the chain shown, from its start. One block for each binder: values may come before it.

What was measured:
[1] = biological target: synthetic MUC1 glycopeptide APDT(GalNAc)… (human); test: SPR; IIB6 on the MUC1 glycopeptide; data not shown
[2] = biological target: human anti-MUC1 scFv IIB6 (human); test: SEC; 80 µg IMAC purified scFv on Superdex200 10/300, PBS, 0.5 mL/min; monomer to dimer
[3] = biological target: T1, MUC1 15 aa peptide with cysteine (…-C) (human); test: SPR; Biacore 2000; about 50 RU MUC1 15 aa peptide with cysteine coupled on a CM5 chip (NHS/EDC, PDEA); serial dilutions of scFv (0-400 nM) at 50 µL/min; 1:1 Langmuir separate fitting; IIB6 by steady-state model
T1 sequence (peptide): APDTRPAPGSTAPPAC

[4] = biological target: affinity matured anti-MUC1 scFv HT220-M-G8 (human); test: SEC; 80 µg IMAC purified scFv on Superdex200 10/300, PBS, 0.5 mL/min; monomer to dimer
[5] = biological target: T2, MUC1 15 aa peptide with cysteine (APDTRPAPGSTAPPA-C) (Homo sapiens (synthetic peptide)); test: SPR; Biacore 2000; about 50 RU MUC1 15 aa peptide with cysteine coupled on a CM5 chip (NHS/EDC, PDEA); serial dilutions of scFv (0-400 nM) at 50 µL/min; 1:1 Langmuir separate fitting; IIB6 by steady-state model; settings: both partners purified
T2 construct: 15 residues of the tandem repeat (VNTR) of human MUC1; added C-terminal cysteine, used for coupling to the chip; also called MUC1 peptide; MUC1 peptide antigen
T2 chain: APDTRPAPGSTAPPAC

[6] = biological target: T3, MUC1 32 aa peptide with a C-terminal cysteine (APDTRPAPGSTAPPAHGVTSAPDTRPAPGSTA-C) (Homo sapiens (synthetic peptide)); test: ELISA; MUC1 32 aa peptide with C-terminal cysteine coated in PBS over night at 4°C; dilution series of purified scFv, scFv-Fc or IgG in 2% M-PBST, 1.5 h at RT; scFv detected by 9E10 (c-myc), scFv-Fc and IgG by anti-human Fc HRP; settings: both partners purified
T3 construct: 32 residues of the tandem repeats (VNTR) of human MUC1; added C-terminal cysteine; also called MUC1 peptide antigen (32mer cys); MUC1 32mer Cys peptide
T3 chain: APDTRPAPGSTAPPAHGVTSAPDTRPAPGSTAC

[7] = biological target: MUC1 on MCF-7 cells (human (endogenous in MCF-7)) (UniProt P15941); test: flow cytometry on cells; internalisation assay: MCF-7 cells with 10 µg/ml antibody on ice 1 h, washed, 1 h at 4°C; surface antibody detected by PE-conjugated mouse anti-human IgG
Chain of MUC1 on MCF-7 cells (human (endogenous in MCF-7)) (P15941 24-1255): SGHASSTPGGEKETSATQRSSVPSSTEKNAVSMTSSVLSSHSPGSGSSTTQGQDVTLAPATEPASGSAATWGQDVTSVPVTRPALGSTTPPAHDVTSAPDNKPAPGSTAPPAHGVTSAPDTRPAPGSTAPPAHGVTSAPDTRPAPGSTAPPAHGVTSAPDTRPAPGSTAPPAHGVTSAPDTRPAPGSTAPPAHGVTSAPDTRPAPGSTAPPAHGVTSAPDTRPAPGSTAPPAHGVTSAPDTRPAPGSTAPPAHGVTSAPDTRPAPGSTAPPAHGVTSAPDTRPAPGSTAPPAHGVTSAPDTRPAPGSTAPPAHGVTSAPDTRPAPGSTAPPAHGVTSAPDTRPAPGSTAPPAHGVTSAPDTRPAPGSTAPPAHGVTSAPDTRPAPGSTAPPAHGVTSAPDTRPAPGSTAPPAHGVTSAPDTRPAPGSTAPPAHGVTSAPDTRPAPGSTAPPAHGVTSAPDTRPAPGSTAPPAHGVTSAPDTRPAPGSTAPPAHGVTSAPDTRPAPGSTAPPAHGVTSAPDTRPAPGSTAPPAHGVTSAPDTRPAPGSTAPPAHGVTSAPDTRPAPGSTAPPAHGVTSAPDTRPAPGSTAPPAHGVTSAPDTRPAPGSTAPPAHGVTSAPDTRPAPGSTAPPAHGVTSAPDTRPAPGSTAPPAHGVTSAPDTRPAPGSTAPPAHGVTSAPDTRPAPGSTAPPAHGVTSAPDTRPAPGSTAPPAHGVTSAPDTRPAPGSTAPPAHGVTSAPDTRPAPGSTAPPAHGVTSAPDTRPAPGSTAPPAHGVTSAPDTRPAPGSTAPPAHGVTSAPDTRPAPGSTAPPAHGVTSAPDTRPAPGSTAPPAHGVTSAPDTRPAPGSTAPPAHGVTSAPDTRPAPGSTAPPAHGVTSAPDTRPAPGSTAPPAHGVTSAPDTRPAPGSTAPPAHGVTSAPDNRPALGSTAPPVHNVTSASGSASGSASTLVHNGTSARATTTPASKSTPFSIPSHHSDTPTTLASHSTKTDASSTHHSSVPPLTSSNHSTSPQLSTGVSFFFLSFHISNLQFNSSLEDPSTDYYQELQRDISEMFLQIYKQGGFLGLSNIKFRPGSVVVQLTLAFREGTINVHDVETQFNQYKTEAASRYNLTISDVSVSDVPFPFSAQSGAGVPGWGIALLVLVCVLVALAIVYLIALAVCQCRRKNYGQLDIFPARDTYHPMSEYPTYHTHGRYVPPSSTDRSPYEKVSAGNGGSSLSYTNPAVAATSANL

B1: human anti-MUC1 scFv IIB6 (scFv, V domains shown)
VH: QMQLVQSGAEVKKPGASVKVSCKASGYTFTGHYMHWVRQAPGQGLEWMGWIDPVTGGTKYAQNFQGWVTMTRDTSIRTAYMELSRLRSDDTAMYYCAREVTGDRGQFDKWGQGTLVTVAS
VL: QSVLTQPPSVSVAPGKTARITCGGNNIGSKSVHWYQQKPGQAPVLVIYYDSDRPSGIPERFSGSNSGNTATLTISRVEAGDEADYYCQVWDSSSDWVFGGGTKLTVL
Kd [1]: 230 nM
percent of the scFv dimerised [2]: 50%
stoichiometry N [2]: 2
Kd [3]: 310 nM

B2: affinity matured anti-MUC1 scFv HT220-M-G8 (scFv, V domains shown)
VH: B1 VH with K12M, T28S, Q39H, G57S, R77S
VL: B1 VL with D50G, S66T, T69M
notes: source: E. coli, IMAC purified; also culture supernatant from microtitre plates; not shown: c-myc, C-terminal, kept
percent of the scFv dimerised [4]: 50%
stoichiometry N [4]: 2
Kd [5]: 4.4 nM
koff [5]: 0.00022 s⁻¹
kon [5]: 50000 M⁻¹ s⁻¹

B3: HT186-G2 human IgG (antibody, V domains shown)
VH: B1 VH with Q1R, V20L, T30A, Q43R
VL: B1 VL with D50G, P54S
notes: as the VH of m4; human IgG heavy-chain constant region from the expression vector CHK622-08; as the VL of m4; C lambda derived from the vector CHL558-0; VH and VL ordered as synthetic genes, codon optimised for rat; also called HT186-G2 IgG
fold decrease of affinity against the scFv-Fc format [6]: ~10 fold

B7: affinity matured anti-MUC1 scFv HT186-B7 (scFv, V domains shown)
VH: B1 VH
VL: B1 VL with V44A, D50G, D52Y, S66Y, S75R
notes: From IIB6 by error-prone PCR (library A), off-rate panning; source: E. coli, IMAC purified; also culture supernatant from microtitre plates; not shown: c-myc, C-terminal, kept
Kd [5]: 1.3 nM
koff [5]: 2.1e-05 s⁻¹
kon [5]: 35000 M⁻¹ s⁻¹

B8: affinity matured anti-MUC1 scFv HT220-M-D1 (scFv, V domains shown)
VH: B1 VH with Q3L, V11A, S88P
VL: B1 VL with A13V, T21I, Y49N, D50N, T69M, A83S, K103R, V106I
notes: one potential N-glycosylation site in CDR2; source: E. coli, IMAC purified; also culture supernatant from microtitre plates; not shown: c-myc, C-terminal, kept
Kd [5]: 3.7 nM
koff [5]: 0.00011 s⁻¹
kon [5]: 29000 M⁻¹ s⁻¹

B9: affinity matured anti-MUC1 scFv HT186-D11 (scFv, V domains shown)
VH: B1 VH with G8E, V11L, T28S, M81L
VL: B1 VL with V44A, D50G, D52N
notes: as for B7
Kd [5]: 0.57 nM
koff [5]: 7.2e-05 s⁻¹
kon [5]: 38000 M⁻¹ s⁻¹

Next, values leading:

Kd [5]: ≤ 1 nM
koff [5]: ≤ 1e-05 s⁻¹
kon [5]: 72000 M⁻¹ s⁻¹
B4: affinity matured anti-MUC1 scFv HT186-G2 (scFv, V domains shown)
VH: B1 VH with Q1R, V20L, T30A, Q43R
VL: B1 VL with D50G, P54S
notes: as for B7

Kd [5]: 2.1 nM
koff [5]: 0.0001 s⁻¹
kon [5]: 49000 M⁻¹ s⁻¹
B5: affinity matured anti-MUC1 scFv HT200-3A-C1 (scFv, V domains shown)
VH: B1 VH
VL: B1 VL with V12M, K16E, Y49N, N68K, S94I
notes: one potential N-glycosylation site in CDR2; From IIB6 by nested error-prone PCR (library B), panning in solution; source: E. coli, IMAC purified; also culture supernatant from microtitre plates; not shown: c-myc, C-terminal, kept

percentage of MUC1 positive cells (4°C) [7]: 68%
B6: HT186-D11 human IgG (antibody, V domains shown)
VH: B1 VH with G8E, V11L, T28S, M81L
VL: B1 VL with V44A, D50G, D52N
